Molecular target: Pseudo-nitzschia multiseries ferritin (Pseudo-nitzschia multiseries)
Test: crystal structure; crystals of PmFTN grown by vapor diffusion (0.1 M sodium acetate pH 5.5, ammonium sulfate, NaCl), aerobic or anaerobic, soaked in 2 mM Fe(II) or 2 mM zinc sulfate; 24-mer shell built from 8 (P23) or 6 (P42(1)2) subunits in the asymmetric unit

Substance: Pseudo-nitzschia multiseries ferritin (natural protein)
- stoichiometry N: 24 subunits

— publication PMC3663513
